# Measured values reported in patent US20110243962A1 (GENEURO, published 2011).
# T1: MSRV complete ENV protein (ENV-T), recombinant from E. coli (MSRV (Multiple Sclerosis associated …))
# T1 construct: also called ENV-T 7A; His-ENV-T
# T1 chain: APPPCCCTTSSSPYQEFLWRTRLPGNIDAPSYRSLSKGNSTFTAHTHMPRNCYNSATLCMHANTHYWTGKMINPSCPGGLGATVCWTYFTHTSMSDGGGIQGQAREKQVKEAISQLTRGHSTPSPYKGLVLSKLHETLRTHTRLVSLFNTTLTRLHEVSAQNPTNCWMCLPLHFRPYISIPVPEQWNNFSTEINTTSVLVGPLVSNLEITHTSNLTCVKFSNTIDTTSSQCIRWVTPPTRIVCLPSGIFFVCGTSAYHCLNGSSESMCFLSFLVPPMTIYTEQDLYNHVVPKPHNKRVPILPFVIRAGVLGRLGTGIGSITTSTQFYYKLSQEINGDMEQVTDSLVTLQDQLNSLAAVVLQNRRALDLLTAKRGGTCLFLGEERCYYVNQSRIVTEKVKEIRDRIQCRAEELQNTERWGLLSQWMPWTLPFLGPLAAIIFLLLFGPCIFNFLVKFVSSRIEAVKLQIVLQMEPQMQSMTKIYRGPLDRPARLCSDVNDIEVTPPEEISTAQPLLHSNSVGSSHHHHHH
# T2: MSRV ENV surface domain fragment (ENV-SU), recombinant from E. coli (MSRV (Multiple Sclerosis associated …))
# T2 chain: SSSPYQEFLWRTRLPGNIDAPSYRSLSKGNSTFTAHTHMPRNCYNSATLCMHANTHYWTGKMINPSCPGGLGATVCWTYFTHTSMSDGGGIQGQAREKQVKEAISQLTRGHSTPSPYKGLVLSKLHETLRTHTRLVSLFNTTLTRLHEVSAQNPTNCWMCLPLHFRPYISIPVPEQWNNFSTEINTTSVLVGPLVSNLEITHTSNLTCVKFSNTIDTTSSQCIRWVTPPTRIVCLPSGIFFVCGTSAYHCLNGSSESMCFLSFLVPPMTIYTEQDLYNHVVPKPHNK
# Legend:
# [1] = target: T1, MSRV complete ENV protein (ENV-T), …; test: ELISA; ENV 1 ug/ml coated; mAb 1 ug/ml
# Method: (§1) Protocol: Incubation 2 h at 37° C. […] Revelation is made by adding OPD substrate and reading optic density with a spectrophotometer after 30 min (Washing steps with PBS are performed between every step).
# [2] = target: T1, MSRV complete ENV protein (ENV-T), …; test: ELISA; ENV 0.5 ug/ml coated; mAb 1 ug/ml
# Method: as §1
# [3] = target: T1, MSRV complete ENV protein (ENV-T), …; test: ELISA; ENV 0.125 ug/ml coated; mAb 1 ug/ml
# Method: as §1
# [4] = target: T1, MSRV complete ENV protein (ENV-T), …; test: ELISA; ENV 0.03125 ug/ml coated; mAb 1 ug/ml
# Method: as §1
# [5] = target: T1, MSRV complete ENV protein (ENV-T), …; test: ELISA; ENV-T 7A 1 ug/ml coated; mAb 0.5 ug/ml
# Method: as §1
# [6] = target: T1, MSRV complete ENV protein (ENV-T), …; test: ELISA; coated ENV-T 7A 0.25; ligand 1 microgram
# Method: (§2) II-1d Direct ELISA on Microplates Coated with ENV Antigen (ENV-T or ENV-SU as Described Above) [0159] Microwells were coated with 100 μl per well of ENV antigen diluted in 50 mM Sodium Bicarbonate, pH 9.6. Plate were sealed and incubated 2 hours at 37° C. under light agitation. [0160] Microwells were washed 4 times with 250 μl per well of PBS (Phosphate Buffer Saline). After the last, plates were inverted and blotted on absorbent paper to remove any residual buffer. [0161] 100 μl per well of detection antibody according to the present invention (GNbAC1 or its Fab fragment) diluted in PBS+BSA 1% (PBS with 1% of Bovine Serum Albumin) were added. Plate were sealed and incubated 1 hour at room temperature under light agitation. […] Microwells were washed 4 times with 250 μl per well of PBS. After the last, plates were inverted and blotted on absorbent paper to remove any residual buffer. [0163] […] Plate were sealed and incubated 1 hour at room temperature under light agitation. [0164] Microwells were washed 6 times with 250 μl per well of PBS. After the last, plates were inverted and blotted on absorbent paper to remove any residual buffer. [0165] 100 μl par well of Substrate Solution (1 tablet of o-Phenylenediamine (OPD) diluted in 10 ml of 0.05M Phosphate Citrate Buffer pH5+10 μl H2O2 30%, prepared at the last moment) were added. Plates were incubated 30 min at room temperature in the dark. […] 50 μl per well of Stop Solution 2N H2SO₄ were added. [0167] The absorbance was read at 490 nm within 30 minutes of stopping reaction.
# (§3) Env-T antigen is coated onto microtiter ELISA plate wells with serial dilutions ranging from 1 μg/ml to about 0.01 μg/ml.
# [7] = target: T1, MSRV complete ENV protein (ENV-T), …; test: ELISA; ENV-T 7A 1 ug/ml coated; mAb 0.0156 ug/ml
# Method: as §1
# [8] = target: T1, MSRV complete ENV protein (ENV-T), …; test: ELISA; ENV-T 7A 1 ug/ml coated; mAb 0.0625 ug/ml
# Method: as §1
# [9] = target: T1, MSRV complete ENV protein (ENV-T), …; test: ELISA; coated ENV-T 7A 0.0078; ligand 1 microgram
# Method: as §2, §3
# [10] = target: T1, MSRV complete ENV protein (ENV-T), …; test: ELISA; coated ENV-T 7A 0.0625; ligand 1 microgram
# Method: as §2, §3
# [11] = target: T1, MSRV complete ENV protein (ENV-T), …; test: ELISA; ENV-T 7A 1 ug/ml coated; mAb 0.03125 ug/ml
# Method: as §1
# [12] = target: T1, MSRV complete ENV protein (ENV-T), …; test: ELISA; coated ENV-T 7A, concentration cell blank (top of series, 1 µg/ml per paragraph 198); ligand 1 microgram
# Method: as §2, §3
# [13] = target: T2, MSRV ENV surface domain fragment …; test: cell-based or functional assay
Binder,optic density [1] [OD],optic density [2] [OD],optic density [3] [OD],optic density [4] [OD],optic density [5] [OD],optical density [6] [OD],optic density [7] [OD],optic density [8] [OD],optical density [9] [OD],optical density [10] [OD],optic density [11] [OD],optical density [12] [OD],"IFN-g at 72 h in PBMC culture with ENV-SU 0.5 ug/ml, MAb ratio 10/1 (no antibody: 336) [13]"
"GNbAC1 murine monoclonal antibody (IgG1/kappa) (antibody, V domains shown, Murine IgG1/kappa from hybridoma; also called murine IgG1; muIgG) VH: QVQLQQSGAELVRPGAPVTLSCKASGYTFTDYEMHWVKQTPVHGLEWIGAVAPETGGTAYNQKFKGKATLTAAKSSSTAYMELRSLTSEDSAVYYCTSTVVPFAYWGQGTLVTVSA VL: QIVLTQSPAIMSASPGEKVTISCSASSSVSYMYWYQQKPGSSPKAWIYRTSNLASGVPGRFSGSGSGTSYSLTISSMEAEDAATYYCQQYQSLPLTFGSGTKLEIK",2.22,1.87,0.975,0.367,1.85,2.84,0.166,0.585,0.625,1.56,0.406,3,–
"Chimeric GNb AC1 IgG1 (human IgG1 constant regions with murine VH and VL) (antibody, V domains shown, Human IgG1 heavy constant region and human kappa constant region, made in CHO cells; also called GNbAC1 chimeric IgG1; Ligand in human IgG1) VH: QVQLQQSGAELVRPGAPVTLSCKASGYTFTDYEMHWVKQTPVHGLEWIGAVAPETGGTAYNQKFKGKATLTAAKSSSTAYMELRSLTSEDSAVYYCTSTVVPFAYWGQGTLVTVSA VL: QIVLTQSPAIMSASPGEKVTISCSASSSVSYMYWYQQKPGSSPKAWIYRTSNLASGVPGRFSGSGSGTSYSLTISSMEAEDAATYYCQQYQSLPLTFGSGTKLEIK",2.52,2.53,1.82,1.6,2.54,2.89,1.27,2.51,0.815,1.8,1.98,3,–
"Chimeric GNb AC1 IgG4 (human IgG4 constant regions with murine VH and VL) (antibody, V domains shown, also called GNbAC1 chimeric IgG4; GNbAC1-IgC4) VH: QVQLQQSGAELVRPGASVTLSCKASGYTFTDYEMHWVKQTPVHGLEWIGAVAPETGGTAYNQKFKGKATLTAAKSSSTAYMELRSLTSEDSAVYYCTSTVVPFAYWGQGTLVTVSA VL: QIVLTQSPAIMSASPGEKVTISCSASSSVSYMYWYQQKPGSSPKAWIYRTSNLASGVPGRFSGSGSGTSYSLTISSMEAEDAATYYCQQYQSLPLTFGSGTKLEIKR",2.67,2.26,1.56,1.09,2.49,2.52,0.777,1.66,0.692,1.52,1.26,3,384
